Laboratory results published in patent publication US20250388936A1, “METHODS AND CELLS FOR THE PRODUCTION OF FLUORINATED COMPOUNDS” (priority 2022, published 2025).

B1: DeoD: PNP from E. coli, SEQ ID NO: 15 (protein, listed as Escherichia coli)
chain: MATPHINAEMGDFADVVLMPGDPLRAKYIAETFLEDAREVNNVRGMLGFTGTYKGRKISVMGHGMGIPSCSIYTKELITDFGVKKIIRVGSCGAVLPHVKLRDVVIGMGACTDSKVNRIRFKDHDFAAIADFDMVRNAVDAAKALGIDARVGNLFSADLFYSPDGEMFDVMEKYGILGVEMEAAGIYGVAAEFGAKALTICTVSDHIRTHEQTTAAERQTTFNDMIKIALESVLLGDKE
B2: SalL^Stro: chlorinase from Salinispora tropica CNB-440, accession 2Q6L_A (protein, UniProt A4X3Q0 1-283, looked up)
Adenosyl-chloride synthase: MQHNLIAFLSDVGSADEAHALCKGVMYGVAPAATIVDITHDVAPFDVREGALFLADVPHSFPAHTVICAYVYPETGTATHTIAVRNEKGQLLVGPNNGLLSFALDASPAVECHEVLSPDVMNQPVTPTWYGKDIVAACAAHLAAGTDLAAVGPRIDPKQIVRLPYASASEVEGGIRGEVVRIDRAFGNVWTNIPTHLIGSMLQDGERLEVKIEALSDTVLELPFCKTFGEVDEGQPLLYLNSRGRLALGLNQSNFIEKWPVVPGDSITVSPRVPDSNLGPVLG
B3: FIA^PtaU1: fluorinase of Methanosaeta sp. PtaU1.Bin055, SEQ ID NO: 1, accession OPY51785.1 (protein, listed as Methanosaeta sp.)
chain: MLQNTKNEYKPRDGGGHRPIIGFMSDLGTEDDSVGICKGVMLGLCPDAVIVDISHSMTPWDIDQGSRLIVDLPKFFPNWTTFATTSYRETGTSARSVAIKLPSGHVYVAPNNGLLTRVIEDHGYVEAYEVTTVGAIPAEPEPTWFSRDMVAYPAAAIAAGFPLENVGRPLNDSEIVRADLPRYTQAEDGIIQGIVTTIDRPFGNIWTNIPRRIIENELRIAYGTNIRVVLDNLLVLEVPFMRTFGDVGLKKPMCYINSRGYFSLAYYGGNLADPYNIRRGMPVKIESITR
modifications: Methanosaeta sp. PtaU1.Bin055
B4: FIA^MA37: fluorinase of Streptomyces sp. MA37, SEQ ID NO: 30, accession CDH39444.1 (protein, listed as Streptomyces sp.)
chain: MAANGSQRPIIAFMSDLGTTDDSVAQCKGLMHSICPGVTVVDVCHSMTPWDVEEGARYIVDLPRFFPEGTVFATTTYPATGTTTRSVAVRIRQAAKGGARGQWAGSGDGFERADGSYIYIAPNNGLLTTVLEEHGYIEAYEVTSTKVIPANPEPTFYSREMVAIPSAHLAAGFPLAEVGRRLDDSEIVRFHRPAVEISGEALSGVVTAIDHPFGNIWTNIHRTDLEKAGIGQGKHLKIILDDVLPFEAPLTPTFADAGAIGNIAFYLNSRGYLSLARNAASLAYPYNLKAGLKVRVEAR
modifications: Streptomyces sp. MA37

How the values were obtained:
[1] = Coupled enzymatic assay, conversion of 5′-FDA into FAld; type: biochemical; conditions: with isomerase^S. cattleya and aldolase^S. coelicolor
Experimental: Coupled isomerase and aldolase activity was monitored by following the consumption of DHAP, through NADH reduction at 340 nm (ε=6220 M^−1 cm^−1) via the activity of a Glycerol-3-Phosphate Dehydrogenase (GPDH, Sigma Aldrich). 5′-FDRP was produced by incubating chemically synthetized 5′-FDA (Calero et al. 2020) at 7.43 mM with 0.5 U Nucleoside Phosphorylase (PNP1, Sigma Aldrich) in 10 mM Tris buffer, for 16 h at 30° C. The assay was carried in 200 μl total volume at 30° C. over a time course of 3 hours. Reaction conditions were 50 mM Tris-HCl Buffer pH7.5, 200 μM NADH, 200 μM 5′-FDRP, 1 U GPDH and 10 μg purified of each enzyme. The reduction of NADH was followed at absorbance 340 nm in a Microtiter Plate reader (BioTek, Elx808).
We used this enzymatic assay with cell-free extracts of cultures of P. putida KT2440::FRS-T7RNAP expressing an isomerase and an aldolase from S. cattleya (isoSc, isomerase^S. cattleya) and S. coelicolor (aldSc, aldolase^S. coelicolor), respectively, that have been previously shown that are able to use fluorinated intermediates (Deng et al., 2008), as well as both an isomerase (isoBt, isomerase^B. thuringiensis) and an aldolase (aldBt) from B. thuringiensis that have been previously described to perform the same reaction with the non-fluorinated metabolites (Beaudoin 2018). […]

[2] = Eustaquio et al., 2008; cited from earlier work
[3] = type: cell-based, Pseudomonas putida KT2440; conditions: induction with 15 mM NaF, 20 h, 30° C., LC-MS
[4] = End-point (1 h) transhalogenation assay; type: biochemical; conditions: 5′-FDA production from 5′-CIDA, 1 mM L-Met, 75 mM KF, 37° C.
Experimental: (§1) 96-well activity assays were carried out in 150 μL reactions containing 50 mM HEPES pH 7.8, 75 mM KF, ˜1 μM fluorinase (considering the theoretical molecular mass), and 10, 25, 50, 100, 250, or 500 μM SAM (New England Biolabs). 96-well PCR plates were sealed and incubated for 1 h at 37° C., 5 min at 95° C., and cooled to 10° C. in a thermocycler (Bio-Rad). The plates were then centrifuged for 30 min at 2,500×g and 120 μL of supernatants were transferred to round-bottom 96-well plates (Thermo Scientific), which were sealed with a silicone lid for HPLC analysis. Transhalogenation reactions were carried out in the same way, but using increasing concentrations of 5′-CIDA (5′-chloro-5′-deoxyadenosine) in the presence of 1 mM L-Met.
(§2) 5′-FDA was quantified following absorbance at 230 nm using a Zorbax C18 column (3.5 μm 4.6×100 mm, Agilent) connected to a HPLC system (Dionex Ultimate 3000, ThermoFisher) with the following gradient (1 mL/min flow rate): 5-12% solvent B in 1.5 min, 12% solvent B for 1 min, 12-30% solvent B in 2 min, 30-70% B in 1.5 min (solvent A: 0.05% acetic acid in water; solvent B: acetonitrile). A six-point calibration curve (R2>0.99) was prepared with 0.5-50 μM 5′-FDA, which was chemically synthesized as previously described (Calero et al., 2020).

[5] = Steady-state fluorination kinetics of purified fluorinases (5′-FDA by HPLC); type: biochemical; conditions: 50 mM HEPES, pH 7.8, 75 mM KF, varying SAM, 37° C., triplicate
Experimental: as §1
Steady-state kinetics were performed in the same conditions with slight variations. Triplicate reactions (600 μL final volume) were prepared in 1.5-mL tubes and incubated for 5 min at 37° C. before addition of SAM (1.5625-800 μM), after which 90 μL aliquots were removed at different time-points (2, 5, 10, 15, 20 and 30 minutes), boiled for 5 min at 95° C., and placed on ice. Samples were centrifuged at maximum speed for 10 min at 4° C. before being transferred to 96-well plates for 5′-FDA quantitation by HPLC analysis. Product formation rates for the different substrate concentrations were calculated by least squares linear regression with at least three time-points and fitted to the Michaelis-Menten equation using the Origin software (OriginLab Corporation).
as §2

[6] = Chlorination reaction, KF replaced by KCl; type: biochemical
Source text: Since FlA^PtaU1 was predicted to be a chlorinase, we evaluated whether it was also active towards SN2-dependent addition of Cl^− onto SAM. […] Previous studies have shown that FlA^Scat can also catalyze the chlorination reaction (Deng et al., 2006). However, this feature requires the simultaneous removal of L-Met or 5′-CIDA, the reaction products, since the reverse dehalogenation reaction is favored. We could observe transhalogenation on 5′-CIDA (i.e. 5′-FDA production in the presence of L-Met and F^−, steps III and I in FIG. 20, respectively; see FIG. 29). Again, FlA^PtaU1 catalytically outperformed all other fluorinases, with a 3-fold higher Vmax value. Although we cannot rule out that FlA^PtaU1 could execute de novo chlorination, it is clear that the 23-residue loop reportedly found in «conventional» fluorinases is not essential for the activity towards F^−.

[7] = 96-well end-point (1 h) fluorinase activity assay; type: biochemical; conditions: purified enzymes, increasing SAM concentrations, 5′-FDA by HPLC
Experimental: as §1, §2

Row | Molecule | Production of 5′-FDA in vivo [3] | Km [5] [µM] | kcat [5] [s⁻¹] | other results
1 | B1 |  |  |  | conversion of 5′-FDA into FAld [1]: conversion was higher
2 | B2 |  |  |  | activity on F^− [2]: inactive on F^−
3 | B3 | could be detected | 6.99 ± 1.06 | 0.00683 ± 0.00017 | intracellular 5′-FDA, fold higher with respect to the other three fluorinase genes [3]: 6- to 12 fold; Vmax, fold higher than all other fluorinases [4]: 3 fold; 5′-CIDA accumulation [6]: no 5′-CIDA accumulation could be detected; 5′-FDA synthase activity [7]: one of the top performers
4 | B4 | could be detected | 4.42 ± 0.58 | 0.00267 ± 0.00017 | 
